Patent US10357573B2, “Block copolymer conjugate of physiologically active substance” (Nippon Kayaku Kabushiki Kaisha, priority 2015, dated 2019)

Key:
[1] = Light scattering intensity of 1 mg/mL aqueous solution, relative to toluene; format: physicochemical
Method: Regarding the measurement sample for the scattering intensity measurement, a solution obtained by adding ultrapure water to a physiologically active substance-conjugated block copolymer to obtain a concentration of 1 mg/mL, dissolving the block copolymer by irradiating the mixture with ultrasonic waves for 10 minutes under ice cooling, and then filtering the solution through a 0.2-μm membrane filter, was used.
Toluene (manufactured by Junsei Chemical Co., Ltd., special grade) that was used for the measurement of the light scattering intensity, was used after being filtered three times through a 0.2-μm membrane filter.

[2] = system: human pancreatic cancer BxPC3; assay: Test Example C-1 intratumor distribution test; format: in vivo, nude mouse; conditions: 5 mg/kg as converted to 2-(2-aminoethoxy)-9-(diethylamino)-5H-benzo[a]phenoxazin-5-one, iv once, one hour after administration
Text: (§1) A tumor mass of human pancreatic cancer BxPC3 that had been subcultured by subcutaneous transplantation in a BALB/c nude mouse was cut into a block having a size of about 3 mm on each side, and this block was subcutaneously transplanted on the dorsal side of a nude mouse using a trocar. […] One hour after the administration, blood was removed from the mouse under isoflurane anesthesia, frozen embedded slices of the removed tumor and the kidneys were produced, and fluorescence was observed.

[3] = Test Example C-1 intrarenal distribution test; format: in vivo, nude mouse; conditions: 5 mg/kg as converted to 2-(2-aminoethoxy)-9-(diethylamino)-5H-benzo[a]phenoxazin-5-one, iv once, one hour after administration
Text: as §1

[4] = system: human colorectal cancer Col-5-JCK and Co-3-KIST, human breast cancer MC-19-JCK; conditions: 75 or 50 mg/kg as converted to Ganetespib, iv once, compared to Comparative Example B-1
Method: The tumor volume was determined by measuring the major axis (L: mm) and the minor axis (W: mm) of the tumor, and calculating the volume by the calculation formula: (L×W^2)/2.

[5] = system: human pancreatic cancer BxPC3; assay: Test Example A-1 intratumor distribution test; format: in vivo, nude mouse; conditions: 50 mg/kg as converted to 7-ethyl-10-hydroxycamptothecin, iv once, 30 minutes after administration
Text: Thirty minutes after the administration, blood was removed from the mouse under isoflurane anesthesia, frozen embedded slices of the removed tumor were produced, and fluorescence was observed.

[6] = Test Example A-2 intrarenal distribution test; format: in vivo, C.B-17SCID mouse; conditions: 50 mg/kg as converted to 7-ethyl-10-hydroxycamptothecin, iv once, 30 minutes after administration

Substance: 2-(2-aminoethoxy)-9-(diethylamino)-5H-benzo[a]phenoxazin-5-one Conjugate of polyethylene glycol (2 Kilodaltons)-α,β-polyaspartic Acid (12.5 Polymer) Block Copolymer [Comparative Example C-3]
- relative ratio between the light scattering intensity and the light scattering intensity of toluene ([1]; 1 mg/mL aqueous solution vs standard toluene solution under the same conditions): less than twice
- self-association in aqueous solution ([1]; aqueous solution): non-associating
- tissue distribution in tumor slices (fluorescence) [2]: migration and accumulation in the tumor tissue was low
- tissue distribution in kidney slices (fluorescence) [3]: fluorescence was observed in the renal tubules

Substance: 4-isopropyl-6-(4-(1-methyl-1H-indol-5-yl)-5-methylene-4,5-dihydro-1H-1,2,4-triazol-3-yl)benzene-1,3-diol Conjugate of polyethylene glycol (2 Kilodaltons)-polyglutamic Acid (7.9 Polymer) Block Copolymer [Example B-1]
- antitumor effect [4]: superior effect in both subcutaneous tumor models at the same dose

Substance: 7-ethyl-10-hydroxycamptothecin (EHC) and 2-(2-aminoethoxy)-9-(diethylamino)-5H-benzo[a]phenoxazin-5-one Conjugate of polyethylene glycol (2 Kilodaltons)-polyglutamic Acid (7.6 Polymer) Block Copolymer [Example A-4]
- tissue distribution in tumor slices (fluorescence) [5]: could penetrate into deep parts of a tumor tissue
- tissue distribution in kidney slices (fluorescence) [6]: fluorescent signals were observed in the blood vessels and the renal tubules of the kidneys

Substance: 7-ethyl-10-hydroxycamptothecin (EHC) and 2-(2-aminoethoxy)-9-(diethylamino)-5H-benzo[a]phenoxazin-5-one Conjugate of polyethylene glycol (12 Kilodaltons)-polyglutamic Acid (25 Polymer) Block Copolymer [Comparative Example A-4, reference compound]
- tissue distribution in tumor slices (fluorescence) [5]: did not penetrate into deep parts of the tumor tissue
- tissue distribution in kidney slices (fluorescence) [6]: fluorescence was not recognized in areas other than the blood vessels of the kidneys
